Test [1] has as its target CD3 on murine TIL (murine).
In test [2] the target is gp100(457-465) peptide … presented by HLA-A2.1 (human).
In test [3] the target is MART-1(32-40) peptide … pulsed on HLA-A2.1 T2 cells (human).
In test [4] the target is MART-1(27-35) peptide … presented by HLA-A2.1 (human).
Test [5] addresses MART-1(22-30) peptide … pulsed on HLA-A2.1 T2 cells (human).
The target in test [6] is MART-1(27-36) peptide … presented by HLA-A2.1 (human).
In test [7] the target is 38 kD folate binding protein (FBP) (Homo sapiens (Human)) (UniProt P15328).
The target is the same in test [8]. This is another data set of the same source.
The target is the same in test [9]. This is another data set of the same source.
Test [10] concerns the target gp100 antigen processed in the cell and presented by HLA-A2.1 (human) (UniProt P40967).
The target of test [11] is MART-1 antigen processed in the cell and presented by HLA-A2.1 (human) (UniProt Q16655).
The target in test [12] is gp100(280-288) peptide … presented by HLA-A2.1 (human).
Test [13] has as its target MART-1(27-35) peptide … presented by HLA-A2.1 (human). The source holds these as a separate data set.
The target in test [14] is melanoma antigen presented by HLA-A2 on HLA-A2+ melanoma cell lines (peptide not identified in the experiment) (human).
For test [15], the target named is MART-1(26-35) peptide … presented by HLA-A2.1 (human).
For test [16], the target named is MART-1(22-30) peptide … pulsed on HLA-A2.1 T2 cells (human). The source holds these as a separate data set.
For test [17], the target named is melanoma antigen presented by HLA-A1 on HLA-A1+, HLA-A2- melanoma cell lines (peptide not identified) (human).
Test [18] has as its target MART-1(27-36) peptide … presented by HLA-A2.1 (human). The source holds these as a separate data set.
For test [19], the target named is MART-1(26-35) peptide … presented by HLA-A2.1 (human). This is another data set of the same source.
Test [20] addresses melanoma antigen presented by HLA-A2 on HLA-A2+ melanoma cell lines (peptide not identified in the experiment) (human). This is another data set of the same source.
The target in test [21] is melanoma antigen presented by HLA-A1 on HLA-A1+, HLA-A2- melanoma cell lines (peptide not identified) (human). This is another data set of the same source.
Test [22] has the same target. This is another data set of the same source.
Test [23] has as its target MART-1 antigen processed in the cell and presented by HLA-A2.1 (human) (UniProt Q16655). This is another data set of the same source.
Test [24] deals with melanoma antigen presented by HLA-A2 on HLA-A2+ melanoma cell lines (peptide not identified in the experiment) (human). The source holds these as a separate data set.
Test [25] deals with melanoma antigen presented by HLA-A1 on HLA-A1+, HLA-A2- melanoma cell lines (peptide not identified) (human). This is another data set of the same source.
The target of test [26] is MART-1(27-35) peptide … presented by HLA-A2.1 (human). The source holds these as a separate data set.
Test [27] shares this target. The source holds these as a separate data set.

Substance 2C11 (anti-CD3) antibody came in with a pg mIFN-γ/ml/5 × 10^5 cells/16 hours in test [1] above 50000 pg/mL.
As for “Jurkat neo (non-transfected Jurkat cells with the endogenous Jurkat TCR, Vβ8)”, the IL-2 released in test [2], in test [3], in test [4], in test [5] and in [6] was below 10 pg/mL in each case.
The substance “MOv-γ chimeric receptor (scFv of MoAb MOv18 joined to the Fc receptor γ chain) (CAR)” showed a mIFN-γ, pg/1.5 × 10^6 splenocytes/ml/48 hrs, fresh splenocytes in test [7] of 1080 pg/mL. Besides, the pg mIFN-γ/ml/5 × 10^5 cells/16 hours in [8] was 16000 pg/mL. Further, the mIFN-γ, pg/1.5 × 10^6 splenocytes/ml/18 hrs, activated splenocytes in [9] was 2830 pg/mL.
In test [8], “Sp-γ chimeric receptor (scFv of anti-2,4,6 TNP MoAb Sp6 joined to the Fc receptor γ chain) (CAR)” yielded a pg mIFN-γ/ml/5 × 10^5 cells/16 hours of 1010 pg/mL.
Consider “TIL 501 (uncloned TIL culture) (cells without a defined receptor)”, for which the IFN-γ Secretion in test [10] is below 10 pg/mL; in test [11] it was 121 pg/mL.
For the substance “TIL 660 (uncloned TIL line) (cells without a defined receptor)”, the IFN-γ Secretion in test [12] stood at 1320 pg/mL; in [13] it was 2330 pg/mL; in [14], 585 pg/mL; in test [15] it was 1120 pg/mL; in test [16], 21 pg/mL; in [17], 27 pg/mL. The substance also registered an IFN-γ Secretion in test [18] of 52 pg/mL.
Consider “TIL 1143 (uncloned TIL culture) (cells without a defined receptor)”, for which the IFN-γ Secretion in test [10] came to 199 pg/mL; in [11], 986 pg/mL.
For the substance “TIL 1200 TCR (TIL 1200 clonotype, Vα9/Jα16/Cα and Vβ22.1/Dβ2.1/Jβ2.1/Cβ2)”, the IFN-γ Secretion in test [10] is 451 pg/mL; in test [11], below 10 pg/mL. For the same substance, the GM-CSF released is 240 pg/mL in [2]; below 10 pg/mL in test [3]; 19 pg/mL in test [4]; 23 pg/mL in test [19]; below 10 pg/mL in test [5]; 19 pg/mL in test [6]. Moreover, the % lysis, 4 hour 51Cr release, E:T 40:1 was found to be 68 % lysis in test [20] and 2 % lysis in [21].
As for “TIL 1235 (uncloned TIL line) (cells without a defined receptor)”, the GM-CSF released in [22] is below 10 pg/mL; in test [23], 557 pg/mL; in [2], 27 pg/mL; in test [3] it was below 10 pg/mL; in test [4], 11900 pg/mL; in test [19], 6710 pg/mL. Further, the GM-CSF released in [5] was 21 pg/mL; in test [6], 614 pg/mL. Further, the IFN-γ Secretion in test [12] was found to be 15 pg/mL.
Regarding “TIL C10-1 TCR (C10-1 T-cell clonotype, Vα8.2/Jα49/Cα and Vβ13.6/Dβ1.1/Jβ1.5/Cβ1)”, the values for the % lysis, 4 hour 51Cr release, E:T 40:1 in test [20] and in [21] were 0 % lysis and 55 % lysis, respectively.
Turning to “TIL F2-2 TCR (TIL F2-2 clonotype, Vα17/Jα42/Cα and Vβ6.5/Dβ1.1/Jβ1.5/Cβ1)”, the values for the % lysis, 4 hour 51Cr release, E:T 40:1 in [20] and in test [21] were 46 % lysis and 1 % lysis, respectively.
With “clone 1E2 TCR (TIL 1E2 clonotype, Vα25/Jα54/Cα and Vβ3.1/Dβ1.1/Jβ1.1/Cβ1)”, the IFN-γ Secretion is below 10 pg/mL in test [10]; 1340 pg/mL in test [11]; 21 pg/mL in test [12]; 16500 pg/mL in test [13]; 2700 pg/mL in [14]; 5250 pg/mL in [15]. The IFN-γ Secretion in test [16] stood at 18 pg/mL; in test [17], 29 pg/mL; in [18] it was 24 pg/mL. For the same substance, the figures for the % lysis, 5 hr 51Cr release, E:T 20:1 in test [24] and in test [25] were 94 % lysis and 0 % lysis, respectively.
For the substance “clone 5 TCR (TIL5 clonotype, Vα1/Jα49/Cα and Vβ7.3/Dβ2.1/Jβ2.1/Cβ2)”, the IL-2 released (pg/ml), HLA-A2+ melanoma cells loaded with peptide in test [26] is 540 pg/mL. In test [27], the concentration of peptide required to provide 50% of maximal IL-2 stimulation is 50 to 200 nM. In addition, the IL-2 released in test [2] is below 10 pg/mL; in [3] it was below 10 pg/mL; in [4] it was 4760 pg/mL; in [19] it was 4060 pg/mL; in test [5], below 10 pg/mL; in [6], 469 pg/mL. Moreover, the % lysis, 4 hour 51Cr release, E:T 10:1 was 52 % lysis in test [20] and -2 % lysis in test [21].
“clone A42 TCR (TIL A42 clonotype, Vα21/Jα42/Cα and Vβ7.3/Dβ2.1/Jβ2.7/Cβ2)”: the IFN-γ Secretion is below 10 pg/mL in test [10]; 730 pg/mL in test [11]; 19 pg/mL in test [12]; above 20000 pg/mL in [13]; 772 pg/mL in test [14]; 765 pg/mL in test [15]. The IFN-γ Secretion is 16 pg/mL in test [16], 18 pg/mL in test [17] and 22 pg/mL in [18]. Also, the values for the % lysis, 5 hr 51Cr release, E:T 20:1 in test [24] and in test [25] were 57 % lysis and 0 % lysis, respectively.
For “nontransduced murine MC38 TIL (cells without a defined receptor)”, the pg mIFN-γ/ml/5 × 10^5 cells/16 hours in test [8] was determined as 1640 pg/mL.
Substance “splenocytes of normal mice (cells without a defined receptor)” showed a mIFN-γ, pg/1.5 × 10^6 splenocytes/ml/48 hrs, fresh splenocytes in [7] of 92 pg/mL.

The record behind these values is patent US5830755.
